The target of one assay is Biotin-FcγRIIB (human) (UniProt P31994). As to the kind of experiment: NGS of 3T3 display library Cmix flow-sorted for FcγRIIB binding.
Assay [1] has as its target T1, Biotin-FcγRIIB (human FcγRIIB, Sino Biological) (human, UniProt P31994 43-217, limits assumed, biotin-labeled).
T1 construct: Used at 1 µg/ml with Streptavidin-APC for flow cytometry and sorting; also called CD32b
T1 sequence (looked up): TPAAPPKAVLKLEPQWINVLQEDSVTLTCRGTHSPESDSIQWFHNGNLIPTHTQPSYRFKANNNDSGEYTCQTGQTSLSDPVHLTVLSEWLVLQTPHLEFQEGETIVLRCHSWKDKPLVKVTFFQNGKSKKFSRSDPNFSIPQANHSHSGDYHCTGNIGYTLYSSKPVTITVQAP
As to the kind of experiment: NGS after FACS sort of 3T3-displayed Library4 for biotin-FcγRIIB binding.

The target of a further assay is T2, Biotin-FcγRIIB (human, UniProt P31994 43-217, limits assumed, biotin label).
T2 construct: Soluble labelled protein used to stain and sort the display cells; also called human FcγRIIB; CD32b
T2 sequence (looked up): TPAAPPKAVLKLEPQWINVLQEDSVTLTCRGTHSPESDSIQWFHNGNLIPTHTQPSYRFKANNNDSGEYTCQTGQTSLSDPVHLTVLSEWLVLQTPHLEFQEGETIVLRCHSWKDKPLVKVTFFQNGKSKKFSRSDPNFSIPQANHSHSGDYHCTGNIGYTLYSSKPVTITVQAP
The assay can be described thus: NGS of 3T3 display library IgG2_C01 flow-sorted for FcγRIIB binding. An excerpt:
Then flow cytometry is used for sorting the cells with high affinity to FcγRIIB for two to three rounds. […] IgG2_C01 is a combined mutation (Type I) library having at most 1 mutation in each of the four regions of P233-V240, V266-P271, S298-T299, and G327-I332; IgG2_C02 is a cell library made by combining the combined mutation (Type II) libraries of four regions of P233-V240, V266-P271, S298-T299 and G327-I332 together and transferring it into 3T3 cells.

Consider “human IgG2 anti-mouse CD40 surface displayed antibody, P233F/V266L/S298L/L328W”, for which, in the assay with Biotin-FcγRIIB (human), the enrichment factor, percentage after 2nd sorting/percentage after 1st sorting came to 94.7; the enrichment factor, percentage after 3rd sorting/percentage after 2nd sorting came to 1.79; the percentage after 1st sorting turned out to be 0%; the percentage after 2nd sorting amounted to 0.16%. The same molecule gave a percentage after 3rd sorting with Biotin-FcγRIIB (human) of 0.29%.
In the assay with Biotin-FcγRIIB (human), “human IgG2 anti-mouse CD40 surface displayed antibody, V234M/S267E/S298G/I332L” gave an enrichment factor, percentage after 1st sorting/percentage before sorting of 16.5; an enrichment factor, percentage after 2nd sorting/percentage after 1st sorting of 64.4; an enrichment factor, percentage after 3rd sorting/percentage after 2nd sorting of 0.66; an enrichment factor, percentage after 3rd sorting/percentage before sorting of 695. In the assay with Biotin-FcγRIIB (human), this molecule came in with an increased factor, mutant enrichment factor/wild-type enrichment factor of 1850; a percentage after 1st sorting of 0.01%; a percentage after 2nd sorting of 0.46%; a percentage after 3rd sorting of 0.3%. Also, the percentage before sorting with Biotin-FcγRIIB (human) stood at 0%.
In the case of “human IgG2 anti-mouse CD40 surface displayed antibody, A235W/V266L/S298L/L328W”, in the assay with Biotin-FcγRIIB (human), the enrichment factor, percentage after 2nd sorting/percentage after 1st sorting was determined as 70.1; the enrichment factor, percentage after 3rd sorting/percentage after 2nd sorting came to 4.67; the percentage after 1st sorting was 0%; the percentage after 2nd sorting turned out to be 0.05%. In addition, in the assay with Biotin-FcγRIIB (human), the percentage after 3rd sorting is 0.22%.
In the assay with Biotin-FcγRIIB (human), “human IgG2 anti-mouse CD40 surface displayed antibody, V234M/S267E/S298L/L328W” came in with an enrichment factor, percentage after 3rd sorting/percentage after 2nd sorting of 5.13; a percentage after 2nd sorting of 0.1%; a percentage after 3rd sorting of 0.53%.

B1: human IgG2 anti-mouse CD40 surface displayed antibody, G327A (antibody, name in EU numbering)
light chain (with the P2A rest): DTVLTQSPALAVSPGERVTISCRASDSVSTLMHWYQQKPGQQPKLLIYLASHLESGVPARFSGSGSGTDFTLTIDPVEADDTATYYCQQSWNDPWTFGGGTKLELKRTVAAPSVFIFPPSDEQLKSGTASVVCLLNNFYPREAKVQWKVDNALQSGNSQESVTEQDSKDSTYSLSSTLTLSKADYEKHKVYACEVTHQGLSSPVTKSFNRGECGSGATNFSLLKQAGDVEENPG
heavy chain: EVQLVESDGGLVQPGRSLKLPCAASGFTFSDYYMAWVRQAPTKGLEWVASISYDGSSTYYRDSVKGRFTISRDNAKSTLYLQMDSLRSEDTATYYCGRHSSYFDYWGQGVMVTVSSASTKGPSVFPLAPCSRSTSESTAALGCLVKDYFPEPVTVSWNSGALTSGVHTFPAVLQSSGLYSLSSVVTVPSSNFGTQTYTCNVDHKPSNTKVDKTVERKCCVECPPCPAPPVAGPSVFLFPPKPKDTLMISRTPEVTCVVVDVSHEDPEVQFNWYVDGVEVHNAKTKPREEQFNSTFRVVSVLTVVHQDWLNGKEYKCKVSNKALPAPIEKTISKTKGQPREPQVYTLPPSREEMTKNQVSLTCLVKGFYPSDIAVEWESNGQPENNYKTTPPMLDSDGSFFLYSKLTVDKSRWQQGNVFSCSVMHEALHNHYTQKSLSLSPGKLEPPPSTVSNMATVAVLVVLGAAIVTGAVVAFVMKMRRRNTGGKGGDYALAPGSQTSDLSLPDCKVMVHDPHSLA
notes: m1 with this Fc mutation (Eu numbering); copies: 2 + 2
Turning to B1, in assay [1], the “Enrichment factor (percentage after sorting/percentage before sorting)” value turned out to be 5.05 and the “Increased factor (enrichment factor/wild-type enrichment factor)” value was 3.38.

B2: human IgG2 anti-mouse CD40 surface displayed antibody, G327A/A330R (antibody, name in EU numbering)
light chain (with the P2A rest): DTVLTQSPALAVSPGERVTISCRASDSVSTLMHWYQQKPGQQPKLLIYLASHLESGVPARFSGSGSGTDFTLTIDPVEADDTATYYCQQSWNDPWTFGGGTKLELKRTVAAPSVFIFPPSDEQLKSGTASVVCLLNNFYPREAKVQWKVDNALQSGNSQESVTEQDSKDSTYSLSSTLTLSKADYEKHKVYACEVTHQGLSSPVTKSFNRGECGSGATNFSLLKQAGDVEENPG
heavy chain: EVQLVESDGGLVQPGRSLKLPCAASGFTFSDYYMAWVRQAPTKGLEWVASISYDGSSTYYRDSVKGRFTISRDNAKSTLYLQMDSLRSEDTATYYCGRHSSYFDYWGQGVMVTVSSASTKGPSVFPLAPCSRSTSESTAALGCLVKDYFPEPVTVSWNSGALTSGVHTFPAVLQSSGLYSLSSVVTVPSSNFGTQTYTCNVDHKPSNTKVDKTVERKCCVECPPCPAPPVAGPSVFLFPPKPKDTLMISRTPEVTCVVVDVSHEDPEVQFNWYVDGVEVHNAKTKPREEQFNSTFRVVSVLTVVHQDWLNGKEYKCKVSNKALPRPIEKTISKTKGQPREPQVYTLPPSREEMTKNQVSLTCLVKGFYPSDIAVEWESNGQPENNYKTTPPMLDSDGSFFLYSKLTVDKSRWQQGNVFSCSVMHEALHNHYTQKSLSLSPGKLEPPPSTVSNMATVAVLVVLGAAIVTGAVVAFVMKMRRRNTGGKGGDYALAPGSQTSDLSLPDCKVMVHDPHSLA
notes: m1 with these Fc mutations (Eu numbering); copies: 2 + 2
With B2, in assay [1], the “Enrichment factor (percentage after sorting/percentage before sorting)” value was found to be 98.3 and the “Increased factor (enrichment factor/wild-type enrichment factor)” value was 65.8.

B3: human IgG2 anti-mouse CD40 surface displayed antibody, G327A/A330V (antibody, name in EU numbering)
light chain (with the P2A rest): DTVLTQSPALAVSPGERVTISCRASDSVSTLMHWYQQKPGQQPKLLIYLASHLESGVPARFSGSGSGTDFTLTIDPVEADDTATYYCQQSWNDPWTFGGGTKLELKRTVAAPSVFIFPPSDEQLKSGTASVVCLLNNFYPREAKVQWKVDNALQSGNSQESVTEQDSKDSTYSLSSTLTLSKADYEKHKVYACEVTHQGLSSPVTKSFNRGECGSGATNFSLLKQAGDVEENPG
heavy chain: EVQLVESDGGLVQPGRSLKLPCAASGFTFSDYYMAWVRQAPTKGLEWVASISYDGSSTYYRDSVKGRFTISRDNAKSTLYLQMDSLRSEDTATYYCGRHSSYFDYWGQGVMVTVSSASTKGPSVFPLAPCSRSTSESTAALGCLVKDYFPEPVTVSWNSGALTSGVHTFPAVLQSSGLYSLSSVVTVPSSNFGTQTYTCNVDHKPSNTKVDKTVERKCCVECPPCPAPPVAGPSVFLFPPKPKDTLMISRTPEVTCVVVDVSHEDPEVQFNWYVDGVEVHNAKTKPREEQFNSTFRVVSVLTVVHQDWLNGKEYKCKVSNKALPVPIEKTISKTKGQPREPQVYTLPPSREEMTKNQVSLTCLVKGFYPSDIAVEWESNGQPENNYKTTPPMLDSDGSFFLYSKLTVDKSRWQQGNVFSCSVMHEALHNHYTQKSLSLSPGKLEPPPSTVSNMATVAVLVVLGAAIVTGAVVAFVMKMRRRNTGGKGGDYALAPGSQTSDLSLPDCKVMVHDPHSLA
notes: as for B2
B3: in assay [1], the “Enrichment factor (percentage after sorting/percentage before sorting)” value was determined as 6.98 and the “Increased factor (enrichment factor/wild-type enrichment factor)” value was found to be 4.67.

B4: human IgG2 anti-mouse CD40 surface displayed antibody, S267E/A330S (antibody, name in EU numbering)
light chain (with the P2A rest): DTVLTQSPALAVSPGERVTISCRASDSVSTLMHWYQQKPGQQPKLLIYLASHLESGVPARFSGSGSGTDFTLTIDPVEADDTATYYCQQSWNDPWTFGGGTKLELKRTVAAPSVFIFPPSDEQLKSGTASVVCLLNNFYPREAKVQWKVDNALQSGNSQESVTEQDSKDSTYSLSSTLTLSKADYEKHKVYACEVTHQGLSSPVTKSFNRGECGSGATNFSLLKQAGDVEENPG
heavy chain: EVQLVESDGGLVQPGRSLKLPCAASGFTFSDYYMAWVRQAPTKGLEWVASISYDGSSTYYRDSVKGRFTISRDNAKSTLYLQMDSLRSEDTATYYCGRHSSYFDYWGQGVMVTVSSASTKGPSVFPLAPCSRSTSESTAALGCLVKDYFPEPVTVSWNSGALTSGVHTFPAVLQSSGLYSLSSVVTVPSSNFGTQTYTCNVDHKPSNTKVDKTVERKCCVECPPCPAPPVAGPSVFLFPPKPKDTLMISRTPEVTCVVVDVEHEDPEVQFNWYVDGVEVHNAKTKPREEQFNSTFRVVSVLTVVHQDWLNGKEYKCKVSNKGLPSPIEKTISKTKGQPREPQVYTLPPSREEMTKNQVSLTCLVKGFYPSDIAVEWESNGQPENNYKTTPPMLDSDGSFFLYSKLTVDKSRWQQGNVFSCSVMHEALHNHYTQKSLSLSPGKLEPPPSTVSNMATVAVLVVLGAAIVTGAVVAFVMKMRRRNTGGKGGDYALAPGSQTSDLSLPDCKVMVHDPHSLA
notes: As m1 with the Fc mutations
As for B4, in the assay with Biotin-FcγRIIB, the “enrichment factor, percentage after 2nd sorting/percentage after 1st sorting” value was determined as 43.1 ratio; the “percentage after 1st sorting” value was 0%; the “percentage after 2nd sorting” value was found to be 0.03%.

These data come from US20230220042A1 (SHANGHAI JIAO TONG UNIVERSITY SCHOOL OF MEDICINE, published 2023).
